Reference: the supplement of paper PMC9112550, “Optimization of the antimicrobial peptide Bac7 by deep mutational scanning” (BMC Biology, 2022)

Tested on: Escherichia coli TOP10
Assay: shrunken log2 fold change of peptide-encoding DNA abundance (4.5 h post-induction vs induction); higher = less antimicrobial activity (less host growth inhibition)
Details: time post-induction: 4.5 h; library: site-saturation at positions 5, 18, 19, 20
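Note: peptides expressed intracellularly from a pBAD plasmid library in pooled LB shake-flask culture, induced with 0.3% L-arabinose, DNA abundance read by NGS, three biological replicates, DESeq2 with apeglm shrinkage.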

Sequence	shrunken log2 fold change
RRIRWRPPRLPRPRPRPDGWPRP	1.12
RRIRWRPPRLPRPRPRPELKPRP	0.276
RRIRHRPPRLPRPRPRPNCQPRP	0.358
RRIRKRPPRLPRPRPRPRLKPRP	0.365
RRIRSRPPRLPRPRPRPTIVPRP	0.148
RRIRFRPPRLPRPRPRPKKFPRP	-0.128
RRIRCRPPRLPRPRPRPPCCPRP	0.021
RRIRVRPPRLPRPRPRPDGAPRP	0.413
RRIRNRPPRLPRPRPRPNRAPRP	0.0272
RRIRQRPPRLPRPRPRPAWTPRP	-0.177
RRIRTRPPRLPRPRPRPAGDPRP	0.258
RRIRLRPPRLPRPRPRPLREPRP	0.332
RRIRSRPPRLPRPRPRPVISPRP	0.141
RRIRLRPPRLPRPRPRPQSIPRP	-0.0983
RRIRSRPPRLPRPRPRPTYEPRP	-0.328
RRIRCRPPRLPRPRPRPFVSPRP	-0.265
RRIRNRPPRLPRPRPRPMYNPRP	-0.693
RRIRMRPPRLPRPRPRPEAIPRP	2.54
RRIRLRPPRLPRPRPRPPEEPRP	0.0505
RRIRCRPPRLPRPRPRPCMIPRP	-0.23
RRIRCRPPRLPRPRPRPCWFPRP	-0.386
RRIRWRPPRLPRPRPRPEGFPRP	0.192
RRIRTRPPRLPRPRPRPQSQPRP	-0.138
RRIRFRPPRLPRPRPRPSDRPRP	-0.853
RRIRCRPPRLPRPRPRPTDGPRP	-0.116

Sequence	shrunken log2 fold change
RRIRQRPPRLPRPRPRPQQLPRP	-0.0824
RRIRIRPPRLPRPRPRPAVSPRP	-0.0873
RRIRNRPPRLPRPRPRPAIKPRP	-0.383
RRIRTRPPRLPRPRPRPGTKPRP	-0.122
RRIRPRPPRLPRPRPRPYEMPRP	-0.281
RRIRWRPPRLPRPRPRPLCDPRP	-0.0525
RRIRSRPPRLPRPRPRPDHEPRP	-0.0462
RRIRDRPPRLPRPRPRPPVMPRP	-0.435
RRIRARPPRLPRPRPRPCEPPRP	0.39
RRIRNRPPRLPRPRPRPGWYPRP	-0.273
RRIRWRPPRLPRPRPRPICCPRP	0.149
RRIRMRPPRLPRPRPRPVYDPRP	-0.399
RRIRHRPPRLPRPRPRPAFNPRP	-0.313
RRIRPRPPRLPRPRPRPTNEPRP	0.0205
RRIRIRPPRLPRPRPRPHIHPRP	-0.811
RRIRGRPPRLPRPRPRPSDYPRP	0.0378
RRIRSRPPRLPRPRPRPERGPRP	-0.0603
RRIRFRPPRLPRPRPRPGIAPRP	-0.15
RRIRNRPPRLPRPRPRPLEEPRP	0.216
RRIRYRPPRLPRPRPRPCGMPRP	-0.217
RRIRNRPPRLPRPRPRPVMVPRP	-0.0209
RRIRWRPPRLPRPRPRPRISPRP	0.305
RRIRFRPPRLPRPRPRPCWAPRP	0.105
RRIRWRPPRLPRPRPRPQQGPRP	0.342
RRIRCRPPRLPRPRPRPDQYPRP	-0.277

Sequence	shrunken log2 fold change
RRIRKRPPRLPRPRPRPQRMPRP	0.408
RRIRGRPPRLPRPRPRPGPMPRP	0.966
RRIRERPPRLPRPRPRPIIPPRP	-0.835
RRIRVRPPRLPRPRPRPMSCPRP	0.0534
RRIRGRPPRLPRPRPRPYWKPRP	-0.0176
RRIRMRPPRLPRPRPRPVNLPRP	-0.0198
RRIRLRPPRLPRPRPRPMCKPRP	0.0258
RRIRIRPPRLPRPRPRPQVSPRP	-0.21
RRIRYRPPRLPRPRPRPCERPRP	0.0112
RRIRKRPPRLPRPRPRPEMAPRP	1.73
RRIRDRPPRLPRPRPRPPEGPRP	0.76
RRIRNRPPRLPRPRPRPFTCPRP	-0.215
RRIRNRPPRLPRPRPRPPCPPRP	0.309
RRIRWRPPRLPRPRPRPMEPPRP	0.0539
RRIRFRPPRLPRPRPRPMQHPRP	0.0148
RRIRMRPPRLPRPRPRPGKEPRP	0.137
RRIRHRPPRLPRPRPRPERTPRP	0.0203
RRIRMRPPRLPRPRPRPVTCPRP	0.0862
RRIRYRPPRLPRPRPRPHHKPRP	-0.319
RRIRFRPPRLPRPRPRPSADPRP	0.157
RRIRNRPPRLPRPRPRPPNHPRP	0.0878
RRIRCRPPRLPRPRPRPFQIPRP	0.00581
RRIRARPPRLPRPRPRPSMAPRP	0.333
RRIRCRPPRLPRPRPRPGEPPRP	0.0366
RRIRWRPPRLPRPRPRPCYDPRP	-0.00133

Sequence	shrunken log2 fold change
RRIRTRPPRLPRPRPRPASKPRP	-0.05
RRIRMRPPRLPRPRPRPPERPRP	1.98
RRIRLRPPRLPRPRPRPLKIPRP	-0.221
RRIRCRPPRLPRPRPRPFLKPRP	-0.639
RRIRRRPPRLPRPRPRPDYCPRP	-0.214
RRIRYRPPRLPRPRPRPMRQPRP	-0.0148
RRIRTRPPRLPRPRPRPWCGPRP	-0.0198
RRIRERPPRLPRPRPRPATTPRP	-0.0752
RRIRFRPPRLPRPRPRPLIGPRP	-0.106
RRIRFRPPRLPRPRPRPYLPPRP	-0.216
RRIRARPPRLPRPRPRPVPRPRP	0.536
RRIRERPPRLPRPRPRPYNIPRP	-0.184
RRIRDRPPRLPRPRPRPIYHPRP	-0.827
RRIRKRPPRLPRPRPRPTNEPRP	0.387
RRIRKRPPRLPRPRPRPLRNPRP	0.653
RRIRNRPPRLPRPRPRPWPAPRP	0.0494
RRIRIRPPRLPRPRPRPGDCPRP	-0.185
RRIRWRPPRLPRPRPRPFPSPRP	-0.1
RRIRIRPPRLPRPRPRPIAQPRP	-0.373
RRIRFRPPRLPRPRPRPMAGPRP	-0.111
RRIRGRPPRLPRPRPRPETKPRP	0.374
RRIRQRPPRLPRPRPRPNTKPRP	-0.199
RRIRTRPPRLPRPRPRPVPDPRP	-0.0687
RRIRSRPPRLPRPRPRPFVKPRP	-0.222
RRIRDRPPRLPRPRPRPELVPRP	0.00724

Sequence	shrunken log2 fold change
RRIRERPPRLPRPRPRPDKDPRP	-0.433
RRIRKRPPRLPRPRPRPEHFPRP	0.0394
RRIRPRPPRLPRPRPRPDNDPRP	0.0931
RRIRKRPPRLPRPRPRPDHGPRP	1.01
RRIRARPPRLPRPRPRPIEVPRP	0.0287
RRIRTRPPRLPRPRPRPGLCPRP	-0.00367
RRIRERPPRLPRPRPRPRQAPRP	0.0291
RRIRARPPRLPRPRPRPQKYPRP	-0.363
RRIRGRPPRLPRPRPRPMFSPRP	0.147
RRIRPRPPRLPRPRPRPPNFPRP	0.0501
RRIRIRPPRLPRPRPRPYVFPRP	-0.0874
RRIRSRPPRLPRPRPRPVTKPRP	-0.00403
RRIRLRPPRLPRPRPRPQKYPRP	-0.442
RRIRFRPPRLPRPRPRPLYAPRP	-0.119
RRIRIRPPRLPRPRPRPSMRPRP	-0.000106
RRIRLRPPRLPRPRPRPNYRPRP	-0.571
RRIRYRPPRLPRPRPRPDWAPRP	0.0528
RRIRGRPPRLPRPRPRPHESPRP	0.784
RRIRCRPPRLPRPRPRPAFSPRP	-0.252
RRIRWRPPRLPRPRPRPDMTPRP	0.216
RRIRWRPPRLPRPRPRPEDYPRP	-0.00903
RRIRDRPPRLPRPRPRPSANPRP	0.119
RRIRGRPPRLPRPRPRPHAAPRP	1.47
RRIRPRPPRLPRPRPRPNQIPRP	0.0623
RRIRLRPPRLPRPRPRPKCDPRP	-0.461

Sequence	shrunken log2 fold change
RRIRSRPPRLPRPRPRPYGHPRP	-0.00193
RRIRARPPRLPRPRPRPVYDPRP	0.0386
RRIRDRPPRLPRPRPRPVCCPRP	0.967
RRIRTRPPRLPRPRPRPYFEPRP	-0.223
RRIRHRPPRLPRPRPRPDCNPRP	-0.18
RRIRSRPPRLPRPRPRPPPQPRP	0.835
RRIRERPPRLPRPRPRPYCMPRP	-1.06
RRIRDRPPRLPRPRPRPHNTPRP	-0.531
RRIRLRPPRLPRPRPRPVMGPRP	0.256
RRIRLRPPRLPRPRPRPMTHPRP	-0.22
RRIRPRPPRLPRPRPRPIEDPRP	-0.0617
RRIRGRPPRLPRPRPRPMTRPRP	0.519
RRIRCRPPRLPRPRPRPYWEPRP	-0.388
RRIRDRPPRLPRPRPRPPMRPRP	0.759
RRIRTRPPRLPRPRPRPSMMPRP	-0.0802
RRIRYRPPRLPRPRPRPAALPRP	-0.478
RRIRSRPPRLPRPRPRPSTRPRP	-0.0999
RRIRRRPPRLPRPRPRPGCDPRP	0.456
RRIRGRPPRLPRPRPRPKHPPRP	0.608
RRIRIRPPRLPRPRPRPPPMPRP	0.377
RRIRFRPPRLPRPRPRPFERPRP	-0.0442
RRIRYRPPRLPRPRPRPPTYPRP	-0.615
RRIRDRPPRLPRPRPRPINFPRP	-0.0167
RRIRSRPPRLPRPRPRPIHPPRP	-0.0819
RRIRQRPPRLPRPRPRPYPMPRP	0.0253
